Assay [1] deals with T1, Versican core protein (mouse, UniProt Q62059 24-3357, limits assumed).
T1 construct: Native chondroitin sulfate proteoglycan from brain lysate, identified by LC-MS/MS against the Mus musculus UniProt database; also called VCAN
Briefly: peptide-affinity chromatography of PBI mouse brain lysate, elution with free CAQK, LC-MS/MS.

Assay [2] deals with Tenascin-R (mouse) (UniProt Q8BYI9). The assay is described as above.
For assay [3], the target named is Hyaluronan and proteoglycan link protein 4 (mouse) (UniProt Q80WM4). The description is as above.
Hyaluronan and proteoglycan link protein 4 (mouse), sequence (Q80WM4 31-400 limits assumed): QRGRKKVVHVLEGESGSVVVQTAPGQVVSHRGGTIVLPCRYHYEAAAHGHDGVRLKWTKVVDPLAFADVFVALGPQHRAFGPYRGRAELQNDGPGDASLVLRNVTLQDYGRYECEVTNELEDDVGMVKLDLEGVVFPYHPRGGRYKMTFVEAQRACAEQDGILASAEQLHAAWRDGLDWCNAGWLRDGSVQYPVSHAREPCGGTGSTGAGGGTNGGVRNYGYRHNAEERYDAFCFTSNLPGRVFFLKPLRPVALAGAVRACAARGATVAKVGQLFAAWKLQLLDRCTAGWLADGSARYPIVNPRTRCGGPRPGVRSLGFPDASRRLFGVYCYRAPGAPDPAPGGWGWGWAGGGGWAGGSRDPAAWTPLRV
Assay [4] has as its target Tenascin-R (mouse) (UniProt Q8BYI9). Briefly: peptide-affinity chromatography of PBI mouse brain lysate, LC-MS/MS.
For assay [5], the target named is T1, Versican core protein. Briefly: peptide-affinity chromatography of PBI mouse brain lysate, LC-MS/MS (empty column denotes protein was not detected). Here is the method:
(§1) Affinity Chromatography and Proteomics. For identifying CAQK binding proteins, mouse brains with brain injury were collected 6 hrs after injury. Using liquid nitrogen, the brains were crushed and ground into powder using a mortar and pestle. Next, brain tissue was lysed in PBS containing 200 mM n-octyl-beta-D-glucopyranoside and protease inhibitor cocktail (Roche) as described (Teesalu et al., PNAS 16157-16162 (2009)). The cleared lysate was loaded on to CAQK or control peptide (CGGK) coated Sulfolink-agarose beads (Pierce, Waltham, Mass.) and incubated at 4° C. for 3-4 hrs. The column was washed with wash buffer (75 mM octyl-beta-D-glucopyranoside and protease inhibitor cocktail in PBS) followed by washing with 0.5 mM control peptide in wash buffer to remove nonspecifically bound proteins. The bound proteins were eluted with 2 mM free CAQK peptide. The eluted factions were pooled, their protein concentration determined by using bicinchoninic acid (BCA) protein assay (Thermo Fischer) and the samples were digested using the Filter-aided Sample Preparation (FASP) method (Wisniewski et al., Nat Methods 6:359-362 (2009)). […] All mass spectra were analyzed with MaxQuant software version 1.5.0.25. […] Empty column denotes protein was not detected.

For assay [6], the target named is T2, Hyaluronan and proteoglycan link protein 4 (mouse, UniProt Q80WM4 31-400).
T2 construct: Native protein from brain lysate, identified by LC-MS/MS; also called Hapln4; HAPLN4
T2 sequence (Q80WM4 31-400 limits assumed): as above
The description is as above. The procedure: as §1

No end group written: not given here.

T1 sequence (Q62059 24-3357 limits assumed): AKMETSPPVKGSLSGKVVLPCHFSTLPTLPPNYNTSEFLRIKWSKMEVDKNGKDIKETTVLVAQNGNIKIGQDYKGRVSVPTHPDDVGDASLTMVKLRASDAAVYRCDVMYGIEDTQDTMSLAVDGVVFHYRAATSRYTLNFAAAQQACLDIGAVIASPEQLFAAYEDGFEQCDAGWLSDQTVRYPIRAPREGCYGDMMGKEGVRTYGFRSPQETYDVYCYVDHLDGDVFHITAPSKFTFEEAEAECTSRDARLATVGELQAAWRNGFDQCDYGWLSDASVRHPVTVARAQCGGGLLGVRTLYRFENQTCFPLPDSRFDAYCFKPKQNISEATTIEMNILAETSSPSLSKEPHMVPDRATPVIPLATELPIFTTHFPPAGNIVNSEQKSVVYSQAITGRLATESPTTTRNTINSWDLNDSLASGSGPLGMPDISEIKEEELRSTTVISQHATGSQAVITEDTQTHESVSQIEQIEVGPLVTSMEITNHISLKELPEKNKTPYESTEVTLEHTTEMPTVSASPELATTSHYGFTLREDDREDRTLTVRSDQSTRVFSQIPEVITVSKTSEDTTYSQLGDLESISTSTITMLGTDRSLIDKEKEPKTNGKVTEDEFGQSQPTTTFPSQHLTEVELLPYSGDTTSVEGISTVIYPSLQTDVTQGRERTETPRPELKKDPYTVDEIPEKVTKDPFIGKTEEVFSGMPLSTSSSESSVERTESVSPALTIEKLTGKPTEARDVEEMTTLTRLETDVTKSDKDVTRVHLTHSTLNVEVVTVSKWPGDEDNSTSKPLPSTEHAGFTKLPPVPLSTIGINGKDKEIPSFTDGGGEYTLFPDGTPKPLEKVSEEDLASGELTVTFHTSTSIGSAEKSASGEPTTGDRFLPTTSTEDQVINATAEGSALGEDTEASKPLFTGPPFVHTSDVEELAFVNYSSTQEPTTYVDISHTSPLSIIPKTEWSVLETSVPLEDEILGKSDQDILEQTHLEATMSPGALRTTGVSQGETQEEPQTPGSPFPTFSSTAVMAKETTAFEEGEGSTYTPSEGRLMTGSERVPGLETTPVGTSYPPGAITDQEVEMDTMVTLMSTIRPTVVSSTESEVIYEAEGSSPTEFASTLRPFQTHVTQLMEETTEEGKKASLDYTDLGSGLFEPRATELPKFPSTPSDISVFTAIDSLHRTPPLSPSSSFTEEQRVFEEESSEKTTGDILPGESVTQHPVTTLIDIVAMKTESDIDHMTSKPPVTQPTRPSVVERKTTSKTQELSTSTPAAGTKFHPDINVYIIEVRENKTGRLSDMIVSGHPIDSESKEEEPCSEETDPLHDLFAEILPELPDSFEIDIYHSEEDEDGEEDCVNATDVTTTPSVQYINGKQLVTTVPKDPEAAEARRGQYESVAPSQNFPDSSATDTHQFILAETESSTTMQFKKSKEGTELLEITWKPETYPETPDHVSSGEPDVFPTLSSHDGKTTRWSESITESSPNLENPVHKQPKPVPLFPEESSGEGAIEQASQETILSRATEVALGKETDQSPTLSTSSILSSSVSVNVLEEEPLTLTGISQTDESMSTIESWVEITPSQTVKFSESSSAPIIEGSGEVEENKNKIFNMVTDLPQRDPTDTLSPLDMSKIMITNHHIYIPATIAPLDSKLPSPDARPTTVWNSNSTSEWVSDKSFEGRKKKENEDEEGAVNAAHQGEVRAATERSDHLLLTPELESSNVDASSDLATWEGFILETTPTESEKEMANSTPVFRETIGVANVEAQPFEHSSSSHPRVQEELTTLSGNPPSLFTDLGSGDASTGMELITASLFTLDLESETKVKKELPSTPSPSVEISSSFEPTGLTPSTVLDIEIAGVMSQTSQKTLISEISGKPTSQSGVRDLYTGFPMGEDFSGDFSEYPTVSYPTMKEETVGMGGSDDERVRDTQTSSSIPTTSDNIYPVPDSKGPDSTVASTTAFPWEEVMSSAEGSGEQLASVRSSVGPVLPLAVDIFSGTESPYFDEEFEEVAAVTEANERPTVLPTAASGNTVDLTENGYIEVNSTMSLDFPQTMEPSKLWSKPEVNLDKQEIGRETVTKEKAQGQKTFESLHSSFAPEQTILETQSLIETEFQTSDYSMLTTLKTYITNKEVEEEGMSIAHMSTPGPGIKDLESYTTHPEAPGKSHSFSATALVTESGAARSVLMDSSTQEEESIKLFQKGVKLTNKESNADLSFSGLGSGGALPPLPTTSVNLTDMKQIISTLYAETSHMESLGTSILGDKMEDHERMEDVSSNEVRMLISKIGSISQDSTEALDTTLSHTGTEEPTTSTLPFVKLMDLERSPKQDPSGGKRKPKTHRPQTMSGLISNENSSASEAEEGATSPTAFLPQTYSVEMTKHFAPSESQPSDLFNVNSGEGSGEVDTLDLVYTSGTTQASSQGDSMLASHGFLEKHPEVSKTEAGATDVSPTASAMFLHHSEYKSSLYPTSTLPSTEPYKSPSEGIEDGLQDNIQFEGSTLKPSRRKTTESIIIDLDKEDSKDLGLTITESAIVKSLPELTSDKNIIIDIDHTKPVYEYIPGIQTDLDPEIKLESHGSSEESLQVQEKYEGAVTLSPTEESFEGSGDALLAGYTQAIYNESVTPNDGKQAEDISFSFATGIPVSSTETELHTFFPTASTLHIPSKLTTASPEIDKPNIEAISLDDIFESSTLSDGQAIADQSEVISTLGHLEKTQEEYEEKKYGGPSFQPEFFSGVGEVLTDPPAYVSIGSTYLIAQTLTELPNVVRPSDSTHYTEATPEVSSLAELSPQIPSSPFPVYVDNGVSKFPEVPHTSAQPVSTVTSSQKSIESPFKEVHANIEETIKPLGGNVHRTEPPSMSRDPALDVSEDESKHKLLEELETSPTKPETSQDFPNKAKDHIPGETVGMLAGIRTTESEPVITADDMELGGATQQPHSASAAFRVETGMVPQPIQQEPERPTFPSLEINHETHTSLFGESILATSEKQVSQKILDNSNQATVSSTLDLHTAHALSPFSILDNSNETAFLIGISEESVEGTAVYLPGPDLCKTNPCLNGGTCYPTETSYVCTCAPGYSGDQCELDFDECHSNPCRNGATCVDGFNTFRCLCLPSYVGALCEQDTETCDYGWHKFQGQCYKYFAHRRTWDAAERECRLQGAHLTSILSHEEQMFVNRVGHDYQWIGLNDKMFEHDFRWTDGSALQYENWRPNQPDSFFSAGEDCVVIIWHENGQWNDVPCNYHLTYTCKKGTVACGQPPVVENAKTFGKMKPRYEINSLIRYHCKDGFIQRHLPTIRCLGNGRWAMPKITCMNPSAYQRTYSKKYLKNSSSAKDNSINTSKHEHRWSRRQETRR
Tenascin-R (mouse), sequence (Q8BYI9 32-1358 limits assumed): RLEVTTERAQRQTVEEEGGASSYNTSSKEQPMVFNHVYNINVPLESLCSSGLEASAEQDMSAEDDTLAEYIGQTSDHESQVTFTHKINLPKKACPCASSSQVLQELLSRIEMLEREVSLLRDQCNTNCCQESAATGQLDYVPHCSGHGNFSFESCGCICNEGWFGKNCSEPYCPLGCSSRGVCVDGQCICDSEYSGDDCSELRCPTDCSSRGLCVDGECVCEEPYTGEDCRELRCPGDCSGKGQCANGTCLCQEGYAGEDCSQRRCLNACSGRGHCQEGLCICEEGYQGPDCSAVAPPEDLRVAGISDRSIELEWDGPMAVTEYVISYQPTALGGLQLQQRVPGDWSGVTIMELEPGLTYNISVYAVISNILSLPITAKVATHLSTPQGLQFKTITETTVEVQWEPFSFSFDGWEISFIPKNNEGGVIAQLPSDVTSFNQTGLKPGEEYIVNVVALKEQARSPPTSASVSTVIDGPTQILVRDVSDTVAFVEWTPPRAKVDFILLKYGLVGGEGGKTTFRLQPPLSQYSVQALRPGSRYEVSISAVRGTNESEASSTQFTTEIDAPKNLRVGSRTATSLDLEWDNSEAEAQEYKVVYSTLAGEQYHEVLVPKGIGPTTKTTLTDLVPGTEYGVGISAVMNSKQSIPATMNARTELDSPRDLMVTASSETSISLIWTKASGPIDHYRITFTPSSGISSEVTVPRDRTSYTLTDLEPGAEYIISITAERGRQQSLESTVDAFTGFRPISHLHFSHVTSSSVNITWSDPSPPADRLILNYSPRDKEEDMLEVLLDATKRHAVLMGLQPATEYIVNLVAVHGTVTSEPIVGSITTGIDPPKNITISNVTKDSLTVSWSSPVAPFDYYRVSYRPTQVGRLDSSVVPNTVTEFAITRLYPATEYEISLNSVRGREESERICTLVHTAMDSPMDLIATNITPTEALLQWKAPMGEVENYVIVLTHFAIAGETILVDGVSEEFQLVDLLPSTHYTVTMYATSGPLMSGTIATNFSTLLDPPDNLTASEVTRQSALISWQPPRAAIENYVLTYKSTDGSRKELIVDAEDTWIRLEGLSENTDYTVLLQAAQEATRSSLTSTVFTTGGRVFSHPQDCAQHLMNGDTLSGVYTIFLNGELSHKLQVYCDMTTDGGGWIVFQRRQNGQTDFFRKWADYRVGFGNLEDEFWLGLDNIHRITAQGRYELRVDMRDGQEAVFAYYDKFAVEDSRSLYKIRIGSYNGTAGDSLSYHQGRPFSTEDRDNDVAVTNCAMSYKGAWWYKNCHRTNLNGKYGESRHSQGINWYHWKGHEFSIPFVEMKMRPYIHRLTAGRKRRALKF

For the molecule CAQK peptide, the Log2 LFQ intensity (log2 LFQ intensity) in the assay with Versican core protein [1] was 26; with Tenascin-R (mouse) [2], 26.7; in assay [3], 19.8.
Molecule control peptide (CGGK) showed a Log2 LFQ intensity (log2 LFQ intensity) with Tenascin-R (mouse) [4] of 24.1.

B1: control peptide (CGGK) (peptide)
peptide: CGGK
modifications: not fully specified (N-terminus, C-terminus)
notes: also called CGGK column
Regarding B1, the binding result (with Versican core protein [5]; in assay [6]) was “no binding” each time.
